Tests used:
Details in all cases: both partners purified
[1] = molecular target: T1, recombinant C3d ( (human, cynomolgus monkey or …, UniProt P01024 1002-1303)); assay: SPR; Biacore 3000 or T200, 25°C; recombinant C3d amine-coupled on a CM5 chip at medium-high density (2,500 RU); CR2-fH1–5 injected at 0–1,000 nM, 30 μL/min; Langmuir 1:1 fit
T1 construct: C3d fragment of complement C3, recombinant, amine-coupled to the CM5 chip; source: recombinant

[2] = molecular target: T1, recombinant C3d; assay: SPR; Biacore 3000 or T200, 25°C; recombinant C3d amine-coupled on a CM5 chip at high density (4,200 RU); CR2-fH1–5 injected at 0–1,000 nM, 30 μL/min; Langmuir 1:1 fit
[3] = molecular target: T1, recombinant C3d; assay: SPR; Biacore 3000 or T200, 25°C; recombinant C3d amine-coupled on a CM5 chip at medium density (750 RU); CR2-fH1–5 injected at 0–1,000 nM, 30 μL/min; Langmuir 1:1 fit
[4] = molecular target: T1, recombinant C3d; assay: SPR; Biacore 3000 or T200, 25°C; recombinant C3d amine-coupled on a CM5 chip at low density (10 RU); CR2-fH1–5 injected at 0–1,000 nM, 30 μL/min, 120 s association, 180 s dissociation; Langmuir 1:1 fit

T1 sequence (P01024 1002-1303): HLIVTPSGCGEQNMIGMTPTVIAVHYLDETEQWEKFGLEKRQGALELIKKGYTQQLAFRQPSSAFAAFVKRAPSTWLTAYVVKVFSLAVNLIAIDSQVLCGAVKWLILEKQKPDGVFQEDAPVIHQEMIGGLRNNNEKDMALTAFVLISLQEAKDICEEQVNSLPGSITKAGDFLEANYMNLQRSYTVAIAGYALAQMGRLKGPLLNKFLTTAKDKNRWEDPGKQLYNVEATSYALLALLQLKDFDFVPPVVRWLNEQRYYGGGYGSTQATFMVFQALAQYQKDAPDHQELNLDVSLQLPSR

B1: TT30 (other)
chain: ISCGSPPPILNGRISYYSTPIAVGTVIRYSCSGTFRLIGEKSLLCITKDKVDGTWDKPAPKCEYFNKYSSCPEPIVPGGYKIRGSTPYRHGDSVTFACKTNFSMNGNKSVWCQANNMWGPTRLPTCVSVFPLECPALPMIHNGHHTSENVGSIAPGLSVTYSCESGYLLVGEKIINCLSSGKWSAVPPTCEEARCKSLGRFPNGKVKEPPILRVGVTANFFCDEGYRLQGPPSSRCVIAGQGVAWTKMPVCEEEDCNELPPRRNTEILTGSWSDQTYPEGTQAIYKCRPGYRSLGNVIMVCRKGEWVALNPLRKCQKRPCGHPGDTPFGTFTLTGGNVFEYGVKAVYTCNEGYQLLGEINYRECDTDGWTNDIPICEVVKCLPVTAPENGKIVSSAMEPDREYHFGQAVRFVCNSGYKIEGDEEMHCSDDGFWSKEKPKCVEISCKSPDVINGSPISQKIIYKENERFQYKCNMGYEYSERGDAVCTESGWRPLPSCEEKSCDNPYIPNGDYSPLRIKHRTGDEITYQCRNGFYPATRGNTAKCTSTGWIPAPRCTL
modifications: Limits are not printed. TT30 is taken as CR2 SCR1-4 (the C3d-binding end) fused directly to factor H SCR1-5, from general knowledge of TT30, with limits from the UniProt Sushi domain features. …
**Q.** What does the source list for B1?
**A.** Kd [1]: 1890 nM; Kd [2]: 1890 nM; Kd [3]: 1260 nM; Kd [4]: 1080 nM

From article PMC11163200, “C3d-Targeted factor H inhibits tissue complement in disease models and reduces glomerular injury without affecting circulating complement” (Molecular Therapy, 2024)
